Source: publication PMC5341102

Key:
[1] = survival on 9.125 mM tBHP, N2 background; conditions: glycan lost; control: N2 expressing SKN-1B/C::GFP
[2] = GFP scoring of intestinal nuclei, tBHP
[3] = survival on 9.125 mM tBHP, skn-1(zu67) background; conditions: glycan lost; control: skn-1(zu67) expressing SKN-1B/C::GFP
[4] = worm lifespan at 20 °C, N2 background; conditions: glycan lost; control: N2 expressing SKN-1B/C::GFP
[5] = worm lifespan at 20 °C, skn-1(zu67) background; conditions: glycan lost; control: skn-1(zu67) expressing SKN-1B/C::GFP
[6] = in vitro kinase assay, anti-phosphoserine blot; conditions: glycan lost; control: wild type GST-SKN-1(321–623aa) co-expressed with HIS-OGT-1
[7] = GFP scoring of intestinal nuclei, oga-1 background; conditions: glycan lost; control: SKN-1B/C::GFP in oga-1(ok1207)
[8] = GFP scoring of intestinal nuclei, gsk-3 RNAi; conditions: glycan lost, control: SKN-1B/C::GFP worms
[9] = anti-phospho-SKN-1(Ser483) blot; conditions: glycan gained; control: wild type worms
[10] = SKN-1 expression in ASI neurons; conditions: control: wild type worms
[11] = GFP scoring of intestinal nuclei, normal condition; conditions: control: N2 expressing SKN-1B/C::GFP, untreated

B1: SKN-1: S470A/T493A (protein)
parent chain: MGGSSRRQRSTSATRRDDKRRRRQCFSSVADDEEETTSIYGVSSIFIWILATSSLILVISSPSSNTSIQSSSYDRITTKHLLDNISPTFKMYTDSNNRNFDEVNHQHQQEQDFNGQSKYDYPQFNRPMGLRWRDDQRMMEYFMSNGPVETVPVMPILTEHPPASPFGRGPSTERPTTSSRYEYSSPSLEDIDLIDVLWRSDIAGEKGTRQVAPADQYECDLQTLTEKSTVAPLTAEENARYEDLSKGFYNGFFESFNNNQYQQKHQQQQREQIKTPTLEHPTQKAELEDDLFDEDLAQLFEDVSREEGQLNQLFDNKQQHPVINNVSLSEGIVYNQANLTEMQEMRDSCNQVSISTIPTTSTAQPETLFNVTDSQTVEQWLPTEVVPNDVFPTSNYAYIGMQNDSLQAVVSNGQIDYDHSYQSTGQTPLSPLIIGSSGRQQQTQTSPGSVTVTATATQSLFDPYHSQRHSFSDCTTDSSSTCSRLSSESPRYTSESSTGTHESRFYGKLAPSSGSRYQRSSSPRSSQSSIKIARVVPLASGQRKRGRQSKDEQLASDNELPVSAFQISEMSLSELQQVLKNESLSEYQRQLIRKIRRRGKNKVAARTCRQRRTDRHDKMSHYI
other: oxidative stress resistance conferred by transgene [1]: abolishes
localisation_or_trafficking ([2]; glycan lost, control: SKN-1B/C::GFP in N2, tBHP-treated): decreases
other: oxidative stress resistance conferred by transgene [3]: abolishes
other: lifespan extension by transgene [4]: abolishes
other: lifespan extension by transgene [5]: abolishes
other: phosphorylation by GSK-3 [6]: increases
localisation_or_trafficking [7]: decreases
localisation_or_trafficking [8]: decreases

B2: SKN-1: T493A (protein)
parent chain: MGGSSRRQRSTSATRRDDKRRRRQCFSSVADDEEETTSIYGVSSIFIWILATSSLILVISSPSSNTSIQSSSYDRITTKHLLDNISPTFKMYTDSNNRNFDEVNHQHQQEQDFNGQSKYDYPQFNRPMGLRWRDDQRMMEYFMSNGPVETVPVMPILTEHPPASPFGRGPSTERPTTSSRYEYSSPSLEDIDLIDVLWRSDIAGEKGTRQVAPADQYECDLQTLTEKSTVAPLTAEENARYEDLSKGFYNGFFESFNNNQYQQKHQQQQREQIKTPTLEHPTQKAELEDDLFDEDLAQLFEDVSREEGQLNQLFDNKQQHPVINNVSLSEGIVYNQANLTEMQEMRDSCNQVSISTIPTTSTAQPETLFNVTDSQTVEQWLPTEVVPNDVFPTSNYAYIGMQNDSLQAVVSNGQIDYDHSYQSTGQTPLSPLIIGSSGRQQQTQTSPGSVTVTATATQSLFDPYHSQRHSFSDCTTDSSSTCSRLSSESPRYTSESSTGTHESRFYGKLAPSSGSRYQRSSSPRSSQSSIKIARVVPLASGQRKRGRQSKDEQLASDNELPVSAFQISEMSLSELQQVLKNESLSEYQRQLIRKIRRRGKNKVAARTCRQRRTDRHDKMSHYI
other: phosphorylation by GSK-3 [6]: increases

B3: SKN-1: without HIS-OGT-1 (protein)
parent chain: MGGSSRRQRSTSATRRDDKRRRRQCFSSVADDEEETTSIYGVSSIFIWILATSSLILVISSPSSNTSIQSSSYDRITTKHLLDNISPTFKMYTDSNNRNFDEVNHQHQQEQDFNGQSKYDYPQFNRPMGLRWRDDQRMMEYFMSNGPVETVPVMPILTEHPPASPFGRGPSTERPTTSSRYEYSSPSLEDIDLIDVLWRSDIAGEKGTRQVAPADQYECDLQTLTEKSTVAPLTAEENARYEDLSKGFYNGFFESFNNNQYQQKHQQQQREQIKTPTLEHPTQKAELEDDLFDEDLAQLFEDVSREEGQLNQLFDNKQQHPVINNVSLSEGIVYNQANLTEMQEMRDSCNQVSISTIPTTSTAQPETLFNVTDSQTVEQWLPTEVVPNDVFPTSNYAYIGMQNDSLQAVVSNGQIDYDHSYQSTGQTPLSPLIIGSSGRQQQTQTSPGSVTVTATATQSLFDPYHSQRHSFSDCTTDSSSTCSRLSSESPRYTSESSTGTHESRFYGKLAPSSGSRYQRSSSPRSSQSSIKIARVVPLASGQRKRGRQSKDEQLASDNELPVSAFQISEMSLSELQQVLKNESLSEYQRQLIRKIRRRGKNKVAARTCRQRRTDRHDKMSHYI
other: phosphorylation by GSK-3 [6]: increases

B4: SKN-1: oga-1 loss (protein)
parent chain: MGGSSRRQRSTSATRRDDKRRRRQCFSSVADDEEETTSIYGVSSIFIWILATSSLILVISSPSSNTSIQSSSYDRITTKHLLDNISPTFKMYTDSNNRNFDEVNHQHQQEQDFNGQSKYDYPQFNRPMGLRWRDDQRMMEYFMSNGPVETVPVMPILTEHPPASPFGRGPSTERPTTSSRYEYSSPSLEDIDLIDVLWRSDIAGEKGTRQVAPADQYECDLQTLTEKSTVAPLTAEENARYEDLSKGFYNGFFESFNNNQYQQKHQQQQREQIKTPTLEHPTQKAELEDDLFDEDLAQLFEDVSREEGQLNQLFDNKQQHPVINNVSLSEGIVYNQANLTEMQEMRDSCNQVSISTIPTTSTAQPETLFNVTDSQTVEQWLPTEVVPNDVFPTSNYAYIGMQNDSLQAVVSNGQIDYDHSYQSTGQTPLSPLIIGSSGRQQQTQTSPGSVTVTATATQSLFDPYHSQRHSFSDCTTDSSSTCSRLSSESPRYTSESSTGTHESRFYGKLAPSSGSRYQRSSSPRSSQSSIKIARVVPLASGQRKRGRQSKDEQLASDNELPVSAFQISEMSLSELQQVLKNESLSEYQRQLIRKIRRRGKNKVAARTCRQRRTDRHDKMSHYI
other: Ser483 phosphorylation [9]: decreases
expression_or_secretion ([10]; glycan gained): no change

B5: SKN-1: ogt-1 loss (protein)
parent chain: MGGSSRRQRSTSATRRDDKRRRRQCFSSVADDEEETTSIYGVSSIFIWILATSSLILVISSPSSNTSIQSSSYDRITTKHLLDNISPTFKMYTDSNNRNFDEVNHQHQQEQDFNGQSKYDYPQFNRPMGLRWRDDQRMMEYFMSNGPVETVPVMPILTEHPPASPFGRGPSTERPTTSSRYEYSSPSLEDIDLIDVLWRSDIAGEKGTRQVAPADQYECDLQTLTEKSTVAPLTAEENARYEDLSKGFYNGFFESFNNNQYQQKHQQQQREQIKTPTLEHPTQKAELEDDLFDEDLAQLFEDVSREEGQLNQLFDNKQQHPVINNVSLSEGIVYNQANLTEMQEMRDSCNQVSISTIPTTSTAQPETLFNVTDSQTVEQWLPTEVVPNDVFPTSNYAYIGMQNDSLQAVVSNGQIDYDHSYQSTGQTPLSPLIIGSSGRQQQTQTSPGSVTVTATATQSLFDPYHSQRHSFSDCTTDSSSTCSRLSSESPRYTSESSTGTHESRFYGKLAPSSGSRYQRSSSPRSSQSSIKIARVVPLASGQRKRGRQSKDEQLASDNELPVSAFQISEMSLSELQQVLKNESLSEYQRQLIRKIRRRGKNKVAARTCRQRRTDRHDKMSHYI
expression_or_secretion ([10]; glycan lost): no change

B6: SKN-1: oga-1(ok1207) (protein)
parent chain: MGGSSRRQRSTSATRRDDKRRRRQCFSSVADDEEETTSIYGVSSIFIWILATSSLILVISSPSSNTSIQSSSYDRITTKHLLDNISPTFKMYTDSNNRNFDEVNHQHQQEQDFNGQSKYDYPQFNRPMGLRWRDDQRMMEYFMSNGPVETVPVMPILTEHPPASPFGRGPSTERPTTSSRYEYSSPSLEDIDLIDVLWRSDIAGEKGTRQVAPADQYECDLQTLTEKSTVAPLTAEENARYEDLSKGFYNGFFESFNNNQYQQKHQQQQREQIKTPTLEHPTQKAELEDDLFDEDLAQLFEDVSREEGQLNQLFDNKQQHPVINNVSLSEGIVYNQANLTEMQEMRDSCNQVSISTIPTTSTAQPETLFNVTDSQTVEQWLPTEVVPNDVFPTSNYAYIGMQNDSLQAVVSNGQIDYDHSYQSTGQTPLSPLIIGSSGRQQQTQTSPGSVTVTATATQSLFDPYHSQRHSFSDCTTDSSSTCSRLSSESPRYTSESSTGTHESRFYGKLAPSSGSRYQRSSSPRSSQSSIKIARVVPLASGQRKRGRQSKDEQLASDNELPVSAFQISEMSLSELQQVLKNESLSEYQRQLIRKIRRRGKNKVAARTCRQRRTDRHDKMSHYI
localisation_or_trafficking ([2]; glycan gained, control: N2 expressing SKN-1B/C::GFP, tBHP-treated): increases
localisation_or_trafficking ([11]; glycan gained): increases

B7: SKN-1: ogt-1(ok1474) (protein)
parent chain: MGGSSRRQRSTSATRRDDKRRRRQCFSSVADDEEETTSIYGVSSIFIWILATSSLILVISSPSSNTSIQSSSYDRITTKHLLDNISPTFKMYTDSNNRNFDEVNHQHQQEQDFNGQSKYDYPQFNRPMGLRWRDDQRMMEYFMSNGPVETVPVMPILTEHPPASPFGRGPSTERPTTSSRYEYSSPSLEDIDLIDVLWRSDIAGEKGTRQVAPADQYECDLQTLTEKSTVAPLTAEENARYEDLSKGFYNGFFESFNNNQYQQKHQQQQREQIKTPTLEHPTQKAELEDDLFDEDLAQLFEDVSREEGQLNQLFDNKQQHPVINNVSLSEGIVYNQANLTEMQEMRDSCNQVSISTIPTTSTAQPETLFNVTDSQTVEQWLPTEVVPNDVFPTSNYAYIGMQNDSLQAVVSNGQIDYDHSYQSTGQTPLSPLIIGSSGRQQQTQTSPGSVTVTATATQSLFDPYHSQRHSFSDCTTDSSSTCSRLSSESPRYTSESSTGTHESRFYGKLAPSSGSRYQRSSSPRSSQSSIKIARVVPLASGQRKRGRQSKDEQLASDNELPVSAFQISEMSLSELQQVLKNESLSEYQRQLIRKIRRRGKNKVAARTCRQRRTDRHDKMSHYI
localisation_or_trafficking ([2]; glycan lost, control: N2 expressing SKN-1B/C::GFP, tBHP-treated): decreases
localisation_or_trafficking ([11]; glycan lost): no change
